From PMC10829871

Target: Recombinant human LILRB4 protein (ECD, hFc Tag) (human) (UniProt Q8NHJ6)
Test: BLI

UniProt Q8NHJ6, sequence (Q8NHJ6 22-259): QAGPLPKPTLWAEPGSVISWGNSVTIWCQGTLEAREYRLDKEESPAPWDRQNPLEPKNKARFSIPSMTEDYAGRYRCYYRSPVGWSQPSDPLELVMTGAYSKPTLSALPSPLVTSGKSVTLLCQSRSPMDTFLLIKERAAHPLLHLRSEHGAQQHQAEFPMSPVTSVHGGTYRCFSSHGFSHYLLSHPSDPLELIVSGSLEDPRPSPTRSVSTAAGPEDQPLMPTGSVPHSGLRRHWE

Recombinant human Galectin 8/LGALS8 protein (from UniProt O00214 1-317) (natural protein)
Kd: 1020 nM | koff: 0.131 s⁻¹
